Assay results: the supplement of paper PMC9112550, “Optimization of the antimicrobial peptide Bac7 by deep mutational scanning” (BMC Biology, 2022)

These sequences were tested on Escherichia coli TOP10 (assay: shrunken log2 fold change of peptide-encoding DNA abundance (4.5 h post-induction vs induction); higher = less antimicrobial activity (less host growth inhibition)). Conditions: time post-induction: 4.5 h; library: site-saturation at positions 5, 18, 19, 20.
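Note: peptides expressed intracellularly from a pBAD plasmid library in pooled LB shake-flask culture, induced with 0.3% L-arabinose, DNA abundance read by NGS, three biological replicates, DESeq2 with apeglm shrinkage.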

Row | Sequence | shrunken log2 fold change
1 | RRIRSRPPRLPRPRPRPRMSPRP | 0.0167
2 | RRIRNRPPRLPRPRPRPDMYPRP | -0.00473
3 | RRIRRRPPRLPRPRPRPDQYPRP | -0.126
4 | RRIRFRPPRLPRPRPRPVKPPRP | -0.0579
5 | RRIRHRPPRLPRPRPRPAKVPRP | 0.00133
6 | RRIRWRPPRLPRPRPRPMWPPRP | 0.214
7 | RRIRYRPPRLPRPRPRPIMVPRP | -0.152
8 | RRIRCRPPRLPRPRPRPMAPPRP | 0.219
9 | RRIRFRPPRLPRPRPRPRAWPRP | 0.409
10 | RRIRVRPPRLPRPRPRPERAPRP | 0.264
11 | RRIRLRPPRLPRPRPRPTKTPRP | -0.0526
12 | RRIRDRPPRLPRPRPRPPYQPRP | 0.251
13 | RRIRHRPPRLPRPRPRPMPYPRP | -0.00164
14 | RRIRHRPPRLPRPRPRPEGQPRP | -0.0936
15 | RRIRRRPPRLPRPRPRPCARPRP | 0.395
16 | RRIRARPPRLPRPRPRPRYCPRP | -0.15
17 | RRIRCRPPRLPRPRPRPGYHPRP | -0.997
18 | RRIRRRPPRLPRPRPRPAAWPRP | 0.0944
19 | RRIRERPPRLPRPRPRPTAYPRP | -0.166
20 | RRIRERPPRLPRPRPRPDVGPRP | -0.59
21 | RRIRIRPPRLPRPRPRPNICPRP | -0.147
22 | RRIRIRPPRLPRPRPRPEVLPRP | -0.0175
23 | RRIRERPPRLPRPRPRPAISPRP | -0.691
24 | RRIRSRPPRLPRPRPRPNTFPRP | -0.0296
25 | RRIRQRPPRLPRPRPRPSSEPRP | 0.0507

Row | Sequence | shrunken log2 fold change
26 | RRIRSRPPRLPRPRPRPRYNPRP | -0.479
27 | RRIRFRPPRLPRPRPRPARFPRP | 0.1
28 | RRIRARPPRLPRPRPRPMPRPRP | 0.827
29 | RRIRCRPPRLPRPRPRPPMLPRP | 0.0982
30 | RRIRYRPPRLPRPRPRPAVAPRP | 0.159
31 | RRIRTRPPRLPRPRPRPFWHPRP | 0.23
32 | RRIRNRPPRLPRPRPRPGPSPRP | 0.516
33 | RRIRMRPPRLPRPRPRPQFKPRP | -0.138
34 | RRIRMRPPRLPRPRPRPMKEPRP | -0.0707
35 | RRIRTRPPRLPRPRPRPKSAPRP | 0.221
36 | RRIRQRPPRLPRPRPRPEGEPRP | 0.0215
37 | RRIRKRPPRLPRPRPRPMTWPRP | -0.00388
38 | RRIRTRPPRLPRPRPRPIANPRP | 0.207
39 | RRIRFRPPRLPRPRPRPFDKPRP | 0.00679
40 | RRIRIRPPRLPRPRPRPYQMPRP | -0.35
41 | RRIRVRPPRLPRPRPRPRMTPRP | 0.265
42 | RRIRIRPPRLPRPRPRPLDSPRP | -0.0212
43 | RRIRDRPPRLPRPRPRPCWPPRP | 0.073
44 | RRIRVRPPRLPRPRPRPCHTPRP | -0.0202
45 | RRIRLRPPRLPRPRPRPKCHPRP | -0.387
46 | RRIRSRPPRLPRPRPRPKEKPRP | -0.00788
47 | RRIRARPPRLPRPRPRPLQVPRP | 0.151
48 | RRIRPRPPRLPRPRPRPYMMPRP | -0.309
49 | RRIRFRPPRLPRPRPRPDCWPRP | -0.0344
50 | RRIRRRPPRLPRPRPRPCAVPRP | 0.0527

Row | Sequence | shrunken log2 fold change
51 | RRIRSRPPRLPRPRPRPCAPPRP | 0.0418
52 | RRIRCRPPRLPRPRPRPWETPRP | 0.323
53 | RRIRYRPPRLPRPRPRPDLDPRP | -0.181
54 | RRIRHRPPRLPRPRPRPRINPRP | -0.0802
55 | RRIRVRPPRLPRPRPRPNMCPRP | -0.576
56 | RRIRTRPPRLPRPRPRPIYRPRP | -0.0278
57 | RRIRHRPPRLPRPRPRPYHCPRP | -0.316
58 | RRIRLRPPRLPRPRPRPLMHPRP | 0.0668
59 | RRIRKRPPRLPRPRPRPRDVPRP | 0.316
60 | RRIRTRPPRLPRPRPRPADKPRP | -0.257
61 | RRIRWRPPRLPRPRPRPEMRPRP | 2.09
62 | RRIRARPPRLPRPRPRPPRTPRP | 1.12
63 | RRIRNRPPRLPRPRPRPAVYPRP | -0.0398
64 | RRIRMRPPRLPRPRPRPNLGPRP | -0.0136
65 | RRIRGRPPRLPRPRPRPTHTPRP | 0.862
66 | RRIRSRPPRLPRPRPRPCWVPRP | -0.272
67 | RRIRFRPPRLPRPRPRPEKTPRP | -0.00398
68 | RRIRARPPRLPRPRPRPGNMPRP | -0.0598
69 | RRIRKRPPRLPRPRPRPTGVPRP | 0.00874
70 | RRIRPRPPRLPRPRPRPWYMPRP | -0.247
71 | RRIRPRPPRLPRPRPRPEEIPRP | -0.00277
72 | RRIRDRPPRLPRPRPRPVACPRP | 0.35
73 | RRIRHRPPRLPRPRPRPTVIPRP | 0.0211
74 | RRIRKRPPRLPRPRPRPSNFPRP | -0.198
75 | RRIRNRPPRLPRPRPRPCYPPRP | -0.318

Row | Sequence | shrunken log2 fold change
76 | RRIRHRPPRLPRPRPRPREPPRP | 0.773
77 | RRIRCRPPRLPRPRPRPGDSPRP | -0.0113
78 | RRIRLRPPRLPRPRPRPWPQPRP | 0.244
79 | RRIRNRPPRLPRPRPRPGCLPRP | -0.000466
80 | RRIRYRPPRLPRPRPRPSEAPRP | -0.096
81 | RRIRARPPRLPRPRPRPWYDPRP | -0.32
82 | RRIRLRPPRLPRPRPRPCRVPRP | -0.141
83 | RRIRRRPPRLPRPRPRPHLYPRP | 0.176
84 | RRIRARPPRLPRPRPRPQILPRP | -0.0605
85 | RRIRDRPPRLPRPRPRPGVQPRP | -0.0372
86 | RRIRQRPPRLPRPRPRPIVFPRP | 0.161
87 | RRIRQRPPRLPRPRPRPVKYPRP | -0.067
88 | RRIRGRPPRLPRPRPRPHEHPRP | 1.13
89 | RRIRHRPPRLPRPRPRPQQQPRP | -0.158
90 | RRIRWRPPRLPRPRPRPNAPPRP | 0.328
91 | RRIRCRPPRLPRPRPRPYEDPRP | -0.01
92 | RRIRKRPPRLPRPRPRPRMYPRP | 0.155
93 | RRIRIRPPRLPRPRPRPLASPRP | 0.0396
94 | RRIRYRPPRLPRPRPRPAMNPRP | -0.796
95 | RRIRVRPPRLPRPRPRPCQQPRP | 0.00938
96 | RRIRNRPPRLPRPRPRPSSPPRP | 0.0179
97 | RRIRRRPPRLPRPRPRPKLHPRP | 0.167
98 | RRIRVRPPRLPRPRPRPNAMPRP | -0.234
99 | RRIRFRPPRLPRPRPRPTTTPRP | 0.212
100 | RRIRWRPPRLPRPRPRPPIQPRP | 0.277

Row | Sequence | shrunken log2 fold change
101 | RRIRRRPPRLPRPRPRPDTRPRP | -0.0459
102 | RRIRHRPPRLPRPRPRPFQDPRP | 0.0239
103 | RRIRRRPPRLPRPRPRPNKCPRP | -0.634
104 | RRIRDRPPRLPRPRPRPNDYPRP | -0.197
105 | RRIRSRPPRLPRPRPRPKRPPRP | 0.413
106 | RRIRERPPRLPRPRPRPWFGPRP | 0.0197
107 | RRIRCRPPRLPRPRPRPNYDPRP | -0.672
108 | RRIRGRPPRLPRPRPRPQEHPRP | 0.146
109 | RRIRLRPPRLPRPRPRPGERPRP | 0.33
110 | RRIRRRPPRLPRPRPRPQGHPRP | 0.071
111 | RRIRMRPPRLPRPRPRPKSAPRP | 0.389
112 | RRIRHRPPRLPRPRPRPPMIPRP | -0.105
113 | RRIRHRPPRLPRPRPRPQAAPRP | -0.0209
114 | RRIRPRPPRLPRPRPRPNMDPRP | -0.674
115 | RRIRFRPPRLPRPRPRPWPLPRP | -0.0977
116 | RRIRQRPPRLPRPRPRPHDIPRP | 0.0769
117 | RRIRDRPPRLPRPRPRPYGTPRP | -0.234
118 | RRIRWRPPRLPRPRPRPFEAPRP | 0.253
119 | RRIRCRPPRLPRPRPRPYEWPRP | -0.0207
120 | RRIRDRPPRLPRPRPRPQLSPRP | 0.103
121 | RRIRIRPPRLPRPRPRPVGVPRP | -0.157
122 | RRIRARPPRLPRPRPRPNQPPRP | 0.0397
123 | RRIRHRPPRLPRPRPRPYVHPRP | -0.312
124 | RRIRSRPPRLPRPRPRPMMFPRP | 0.0732
125 | RRIRFRPPRLPRPRPRPTYEPRP | -0.3

Row | Sequence | shrunken log2 fold change
126 | RRIRCRPPRLPRPRPRPMIGPRP | -0.0953
127 | RRIRERPPRLPRPRPRPLGTPRP | -0.0681
128 | RRIRERPPRLPRPRPRPFGVPRP | 0.00331
129 | RRIRSRPPRLPRPRPRPACQPRP | 0.0147
130 | RRIRLRPPRLPRPRPRPVHHPRP | -0.105
131 | RRIRFRPPRLPRPRPRPLHCPRP | 0.0254
132 | RRIRQRPPRLPRPRPRPEHHPRP | -0.136
133 | RRIRARPPRLPRPRPRPMYKPRP | -0.189
134 | RRIRDRPPRLPRPRPRPKHCPRP | 0.0694
135 | RRIRHRPPRLPRPRPRPRERPRP | 0.392
136 | RRIRCRPPRLPRPRPRPQRYPRP | -0.105
137 | RRIRARPPRLPRPRPRPPNKPRP | 0.23
138 | RRIRQRPPRLPRPRPRPFLDPRP | -0.372
139 | RRIRYRPPRLPRPRPRPATEPRP | 0.0247
140 | RRIRARPPRLPRPRPRPDAEPRP | 1.63
141 | RRIRPRPPRLPRPRPRPQNFPRP | -0.0849
142 | RRIRTRPPRLPRPRPRPSPCPRP | -0.0588
143 | RRIRHRPPRLPRPRPRPCFAPRP | 0.0434
144 | RRIRQRPPRLPRPRPRPQVYPRP | -0.0731
145 | RRIRHRPPRLPRPRPRPCENPRP | -0.0381
146 | RRIRFRPPRLPRPRPRPSSVPRP | -0.503
147 | RRIRIRPPRLPRPRPRPTHRPRP | -0.322
148 | RRIRERPPRLPRPRPRPGCPPRP | 0.0137
149 | RRIRCRPPRLPRPRPRPNFIPRP | -0.616
150 | RRIRARPPRLPRPRPRPHTPPRP | 0.152
